Test results taken from patent publication US20090175847A1.

Experiments:
Aβ(1-42) fibrils (human) = Aβ(1-42) fibrils (human) (UniProt P05067); experiment: co-pelleting with Aβ(1-42) fibrils (20 h, 37 °C), SDS-PAGE, densitometry of the antibody heavy chain in pellet and supernatant
[1] = biological target: Aβ(1-42) globulomer (human) (UniProt P05067); experiment: dot blot densitometry; antigen: Aβ(1-42) globulomer
Aβ(1-42) monomer (human) [2] = experiment: dot blot densitometry; antigen: Aβ(1-42) monomer, 0.1% NaOH
Aβ(1-42) monomer (human) [3] = experiment: dot blot densitometry; antigen: Aβ(1-42) monomer, 0.1% NH4OH

Sequence of Aβ(1-42) monomer (human) (peptide, as listed by the source): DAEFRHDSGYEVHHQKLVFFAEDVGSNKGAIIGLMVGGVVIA
Sequence of Aβ(1-42) fibrils (human) (P05067 672-713 limits assumed): as the sequence (peptide, as listed by the source) above
Sequence of Aβ(1-42) globulomer (human) (P05067 672-713 limits assumed): as the sequence (peptide, as listed by the source) above

IgG2a antibody isotype control made against KLH (Keyhole Limpet Hemocyanin)
antibody bound to fibrils [%] (Aβ(1-42) fibrils (human)): 9%

mouse monoclonal antibody 6E10 (Signet No 9320)
relation between recognition of Aβ(20-42) globulomer and the respective Aβ form [1]: 0.02
relation between recognition of Aβ(20-42) globulomer and the respective Aβ form (Aβ(1-42) monomer (human) [2]): 1
antibody bound to fibrils [%] (Aβ(1-42) fibrils (human)): 91%
relation between recognition of Aβ(20-42) globulomer and the respective Aβ form (Aβ(1-42) monomer (human) [3]): 1
